The target in assay [1] is T1, Full length TNF-gamma-beta on the cell surface (human, UniProt O95150 1-251).
T1 construct: whole, on cells; also called TNF-gamma-beta expressing cells
T1 sequence (looked up): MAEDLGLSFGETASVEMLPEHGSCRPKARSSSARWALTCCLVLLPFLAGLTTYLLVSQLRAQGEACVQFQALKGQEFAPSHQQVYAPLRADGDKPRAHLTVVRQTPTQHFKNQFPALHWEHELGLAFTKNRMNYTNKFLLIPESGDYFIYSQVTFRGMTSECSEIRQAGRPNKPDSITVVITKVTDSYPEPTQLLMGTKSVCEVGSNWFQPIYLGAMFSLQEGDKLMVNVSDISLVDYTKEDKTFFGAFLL
Description: flow cytometry on HEK293F cells expressing full length TNF-gamma-beta.

Assay [2] concerns the target T2, Fas receptor on human cells (Jurkat, HT-29) (human, UniProt P25445 26-335).
T2 sequence (looked up): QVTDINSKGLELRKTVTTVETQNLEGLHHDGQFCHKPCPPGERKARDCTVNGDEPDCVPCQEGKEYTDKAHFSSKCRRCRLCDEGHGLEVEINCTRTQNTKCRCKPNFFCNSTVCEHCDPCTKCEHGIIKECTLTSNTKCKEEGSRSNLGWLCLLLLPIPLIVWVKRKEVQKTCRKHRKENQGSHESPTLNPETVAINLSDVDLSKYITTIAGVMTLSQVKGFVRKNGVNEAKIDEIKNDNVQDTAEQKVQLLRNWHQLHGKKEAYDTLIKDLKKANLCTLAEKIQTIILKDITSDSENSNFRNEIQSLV
Put plainly: cell-based or functional assay.

Assay [3] has as its target T3, AIM-II expressed on HEK 293 EBNA cells (UniProt O43557 1-240).
T3 construct: whole, on cells
Put plainly: flow cytometry on AIM-II-transfected HEK 293 EBNA cells. The procedure:
For detecting Fc-fusion protein, cells were stained with FITC-conjugated goat anti-human IgG. […] The cells were analyzed by FACScan (Becton Dickinson).

The target in assay [4] is T4, Murine FasL expressed on murine L929 cells (mouse, UniProt P41047 1-279).
T4 sequence (looked up): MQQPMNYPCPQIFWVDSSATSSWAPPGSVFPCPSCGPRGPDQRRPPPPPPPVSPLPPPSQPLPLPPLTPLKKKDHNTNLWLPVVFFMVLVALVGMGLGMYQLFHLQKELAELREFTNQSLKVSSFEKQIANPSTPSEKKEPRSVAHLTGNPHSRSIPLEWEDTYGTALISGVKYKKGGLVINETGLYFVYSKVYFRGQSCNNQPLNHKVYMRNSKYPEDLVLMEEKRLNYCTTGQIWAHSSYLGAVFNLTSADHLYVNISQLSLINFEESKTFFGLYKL
Put plainly: cell-based or functional assay.

For assay [5], the target named is T1, Full length TNF-gamma-beta on the cell …. Put plainly: flow cytometry competition on TNF-gamma-beta expressing cells; competitor DR3-Fc.

T3 sequence (O43557 whole entry): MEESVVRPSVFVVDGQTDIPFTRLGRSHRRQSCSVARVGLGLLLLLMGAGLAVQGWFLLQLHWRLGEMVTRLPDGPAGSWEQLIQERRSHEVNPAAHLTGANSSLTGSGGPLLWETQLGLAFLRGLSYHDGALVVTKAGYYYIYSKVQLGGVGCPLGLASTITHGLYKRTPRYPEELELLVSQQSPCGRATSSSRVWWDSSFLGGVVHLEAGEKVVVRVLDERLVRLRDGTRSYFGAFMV

B1: OPG-Fc (Fc-fusion form of the extracellular domain) (Fc fusion, UniProt O00300 22-194, looked up)
chain: ETFPPKYLHYDEETSHQLLCDKCPPGTYLKQHCTAKWKTVCAPCPDHYYTDSWHTSDECLYCSPVCKELQYVKQECNRTHNRVCECKEGRYLEIEFCLKHRSCPPGFGVVQAGTPERNTVCKRCPDGFFSNETSSKAPCRKHTNCSVFGLLLTQKGNATHDNICSGNSESTQK
notes: extracellular domain; not shown: Fc portion
Take B1: the binding result in assay [1] is given as “no binding”.

B2: Soluble human FLAG-FasL (synthesized at HGS) (ligand, UniProt P48023 130-281, looked up, not shown: small tags and cut ends)
chain: QIGHPSPPPEKKELRKVAHLTGKSNSRSMPLEWEDTYGIVLLSGVKYKKGGLVINETGLYFVYSKVYFRGQSCNNLPLSHKVYMRNSKYPQDLVMMEGKMMSYCTTGQMWARSSYLGAVFNLTSADHLYVNVSELSLVNFEESQTFFGLYKL
Take B2: the “increase in apoptotic Jurkat cells over untreated controls (annexin FACS)” value in assay [2] was approximately 7 fold.

B3: LTβR-Fc (Fc fusion, UniProt P36941 31-227, looked up)
chain: QAVPPYASENQTCRDQEKEYYEPQHRICCSRCPPGTYVSAKCSRIRDTVCATCAENSYNEHWNYLTICQLCRPCDPVMGLEEIAPCTSKRKTQCRCQPGMFCAAWALECTHCELLSDCPPGTEAELKDEVGKGNNHCVPCKAGHFQNTSSPSARCQPHTRCENQGLVEAAPGTAQSDTTCKNPLEPLPPEMSGTMLM
notes: also called LTbetaR-Fc; LTBR-Fc; not shown: Fc portion
Take B3: the binding result in assay [3] is recorded as “binds”.

B4: TNFR6 alpha-Fc (full length TNFR-6 alpha, amino acids 1-300 of SEQ ID NO:2, fused to an Fc domain of human IgG1) (Fc fusion, not shown: a dimerising Fc or GST)
chain: VAETPTYPWRDAETGERLVCAQCPPGTFVQRPCRRDSPTTCGPCPPRHYTQFWNYLERCRYCNVLCGEREEEARACHATHNRACRCRTGFFAHAGFCLEHASCPPGAGVIAPGTPSQNTQCQPCPPGTFSASSSSSEQCQPHRNCTALGLALNVPGSSSHDTLCTSCTGFPLSTRVPGAEECERAVIDFVAFQDISIKRLQRLLQALEAPEGWGPTPRAGRAALQLKLRRRLTELLGAQDGALLVRLLQALRVARMPGLERSVRERFLPVH
Consider B4, for which the “potency relative to Fas-Fc, killing of A20 cells by murine FasL transfected L929 cells” value in assay [4] came out at 100 fold.

B5: TR6 (full-length human TNFR-6 alpha without Fc) (receptor)
chain: VAETPTYPWRDAETGERLVCAQCPPGTFVQRPCRRDSPTTCGPCPPRHYTQFWNYLERCRYCNVLCGEREEEARACHATHNRACRCRTGFFAHAGFCLEHASCPPGAGVIAPGTPSQNTQCQPCPPGTFSASSSSSEQCQPHRNCTALGLALNVPGSSSHDTLCTSCTGFPLSTRVPGAEECERAVIDFVAFQDISIKRLQRLLQALEAPEGWGPTPRAGRAALQLKLRRRLTELLGAQDGALLVRLLQALRVARMPGLERSVRERFLPVH
notes: Full-length cDNA (aa 1-300) expressed in Sf9 cells; also called TR6-non-Fc; TR6 non-Fc
For the molecule B5, the “molar ratio (TR6 to DR3-Fc) at which no DR3-Fc binding was detected” value in assay [5] is 2 mol/mol.

B6: HVEM/TR2-Fc (Fc fusion)
chain: LPSCKEDEYPVGSECCPKCSPGYRVKEACGELTGTVCEPCPPGTYIAHLNGLSKCLQCQMCDPAMGLRASRNCSRTENAVCGCSPGHFCIVQDGDHCAACRAYATSSPGQRVQKGGTESQDTLCQNCPPGTFSPNGTLEECQHQTKCSWLVTKAGAGTSSSHWV
notes: also called soluble form of HVEM/TR2-Fc; not shown: Fc portion
For B6, the binding result in assay [3] is on record as “binds”.

B7: DcR1-Fc (Fc-fusion form of the extracellular domain) (Fc fusion, UniProt O14798 26-221, looked up)
chain: ATTARQEEVPQQTVAPQQQRHSFKGEECPAGSHRSEHTGACNPCTEGVDYTNASNNEPSCFPCTVCKSDQKHKSSCTMTRDTVCQCKEGTFRNENSPEMCRKCSRCPSGEVQVSNCTSWDDIQCVEEFGANATVETPAAEETMNTSPGTPAPAAEETMNTSPGTPAPAAEETMTTSPGTPAPAAEETMTTSPGTPA
notes: as for B1
With B7, the binding result in assay [1] was “no binding”.

These data come from patent US20040013664A1 (published 2004).
